Reference: US20240376180A1 (DEUTSCHES ZENTRUM FUR NEURODEGENERATIVE ERKRANKUNGEN E V …, published 2024)

Legend:
beta-2 microglobulin = beta-2 microglobulin (Homo sapiens (Human), UniProt P61769 21-119); assay: routine laboratory ELISA
[1] = molecular target: SARS-CoV-2 spike on S-pseudotyped MLV virions (SARS-CoV-2, UniProt P0DTC2 14-1255); assay: cell-based or functional assay
[2] = molecular target: SARS-CoV spike on S-pseudotyped MLV virions (SARS-CoV); assay: cell-based or functional assay
[3] = molecular target: T1, Spike protein of authentic SARS-CoV-2 (Munich isolate 984) (SARS-CoV-2, UniProt P0DTC2 14-1273); assay: cell-based or functional assay
[4] = molecular target: T1, Spike protein of authentic SARS-CoV-2 …; assay: cell-based or functional assay; parameters: IC90 Neutralizing Assay: unit not given beside the values
[5] = molecular target: SARS-CoV-2 S protein-RBD-mFc (SARS-CoV-2, UniProt P0DTC2 319-537)
[6] = molecular target: T2, Fc fusion protein of the RBD-SD1 region of HCoV-OC43 (HCoV-OC43, UniProt P36334 318-675); assay: ELISA on captured RBD-SD1-Fc
T2 construct: domain: RBD-SD1 region
T2 sequence: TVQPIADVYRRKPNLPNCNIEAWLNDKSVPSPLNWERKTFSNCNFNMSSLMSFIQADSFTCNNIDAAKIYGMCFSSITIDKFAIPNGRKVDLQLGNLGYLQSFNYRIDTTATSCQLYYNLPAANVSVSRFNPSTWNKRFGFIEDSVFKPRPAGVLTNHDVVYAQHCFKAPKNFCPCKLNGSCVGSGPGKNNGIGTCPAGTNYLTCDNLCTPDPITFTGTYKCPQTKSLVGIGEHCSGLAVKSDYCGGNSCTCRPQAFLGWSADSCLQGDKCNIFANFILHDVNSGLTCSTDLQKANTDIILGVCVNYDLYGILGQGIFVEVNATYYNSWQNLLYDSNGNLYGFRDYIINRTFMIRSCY

[7] = molecular target: Fc fusion protein of the RBD-SD1 region of SARS-CoV (SARS-CoV, UniProt P59594 306-577); assay: ELISA on captured RBD-SD1-Fc
[8] = molecular target: T3, Fc fusion protein of the RBD-SD1 region of MERS-CoV (MERS-CoV, UniProt K9N5Q8 367-655); assay: ELISA on captured RBD-SD1-Fc
T3 sequence: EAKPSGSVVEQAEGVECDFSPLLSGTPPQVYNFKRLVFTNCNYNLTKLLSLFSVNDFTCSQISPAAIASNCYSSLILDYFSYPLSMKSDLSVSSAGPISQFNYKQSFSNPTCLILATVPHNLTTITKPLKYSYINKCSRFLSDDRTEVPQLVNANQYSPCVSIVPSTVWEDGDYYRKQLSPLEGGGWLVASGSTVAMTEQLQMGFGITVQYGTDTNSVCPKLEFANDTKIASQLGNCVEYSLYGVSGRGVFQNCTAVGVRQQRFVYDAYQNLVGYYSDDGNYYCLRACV

[9] = molecular target: T4, Fc fusion protein of the RBD-SD1 region of HCoV-HKU1 (HCoV-HKU1, UniProt Q5MQD0 310-677); assay: ELISA on captured RBD-SD1-Fc
T4 construct: domain: RBD-SD1 region
T4 sequence: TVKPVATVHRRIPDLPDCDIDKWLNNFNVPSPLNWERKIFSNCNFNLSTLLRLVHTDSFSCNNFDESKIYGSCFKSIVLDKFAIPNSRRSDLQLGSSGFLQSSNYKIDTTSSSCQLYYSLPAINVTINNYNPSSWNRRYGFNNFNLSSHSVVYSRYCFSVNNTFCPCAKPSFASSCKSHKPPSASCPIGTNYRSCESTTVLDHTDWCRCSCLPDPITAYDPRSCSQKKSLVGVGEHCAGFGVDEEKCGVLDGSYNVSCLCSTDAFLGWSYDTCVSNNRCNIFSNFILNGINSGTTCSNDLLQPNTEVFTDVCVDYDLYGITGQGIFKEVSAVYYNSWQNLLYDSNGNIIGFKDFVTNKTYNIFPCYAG

beta-2 microglobulin, sequence (P61769 21-119 limits assumed): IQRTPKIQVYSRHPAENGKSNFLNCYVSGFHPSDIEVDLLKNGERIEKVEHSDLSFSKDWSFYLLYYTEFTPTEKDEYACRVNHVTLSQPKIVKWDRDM

B1: HK CV38-142 (antibody, V domains shown)
VH: EVQLVQSGAEVKKPGESLKISCQGSGYSFTSYWIGWVRQMPGKGLEWMGIIYPGESDTRYSSSFQGHVTISADKSISTAYLQWSSLKASDTAMYYCARIRGVYSSGWIGGDYWGQGTLVTVSS
VL: not shown
binding result (beta-2 microglobulin): no binding (tested: 50 µg/ml)
pseudovirus neutralization assay, potency (IC50) [1]: 3.5 µg/mL
pseudovirus neutralization assay, potency (IC50) [2]: 1.4 µg/mL
IC50 (PRNT, authentic SARS-CoV-2) [3]: 0.0232 µg/mL
IC50 Neutralizing Assay [4]: ~0.05 µg/mL

B2: HL CV07-315 (antibody, V domains shown)
VH: EVQLVESGGGLVQPGRSLRLSCAASGFTFDDYAMHWVRQAPGKGLEWVSGISWNSGSIGYADSVKGRFTISRDNAKNSLYLQMNSLRAEDTALYYCAKDFLWDLHPPRYYGMDVWGQGTTVTVSS
VL: QSVLTRPPSVSAAPGQKVTISCSGSSSNIGNNYVSWYQQLPGTAPKLLIYENNKRPSGIPDRFSGSKSGTSATLGITGLQTGDEADYYCGTWDSSLNGVFGGGTKLTVLG
binding result (beta-2 microglobulin): no binding (tested: 50 µg/ml)
Kd [5]: 0.0112 nM
IC50 (PRNT, authentic SARS-CoV-2) [3]: 0.0249 µg/mL
binding result [6]: no binding (tested: 1 µg/ml)
binding result [7]: no binding (tested: 1 µg/ml)
binding result [8]: no binding (tested: 1 µg/ml)
binding result [9]: no binding (tested: 1 µg/ml)
IC50 Neutralizing Assay [4]: ~0.05 µg/mL

B3: HL CV07-250 (antibody, V domains shown)
VH: QVQLVQSEAEVKEPGASVEVSCKASGYNFTNFAISWVRQAPGQGLEWMGWISGYNGDTNSAQKFLGRVTMTTDTSTTTAYMELRSLRSDDTAVYYCAGSDNYGFPYNGMDVWGQGTTVTVSS
VL: QSALTQPPSASGSPGQSVTISCTGTSSDLGAYHFVTWYQHYPGKAPKVMIYGVRKRPSGVPDRFSGSKSGNTASLTVSGLQDEDEADYYCSSYAGNNDFVFGGGTKLTVLS
binding result (beta-2 microglobulin): no binding (tested: 50 µg/ml)
Kd [5]: 0.0564 nM
IC50 (PRNT, authentic SARS-CoV-2) [3]: 0.0035 µg/mL
binding result [6]: no binding (tested: 1 µg/ml)
binding result [7]: no binding (tested: 1 µg/ml)
binding result [8]: no binding (tested: 1 µg/ml)
binding result [9]: no binding (tested: 1 µg/ml)
IC90 Neutralizing Assay [4]: > 500

B4: HK CV07-287 (antibody, V domains shown)
VH: QVQLVQSGPEVKKPGTSVKVSCKASGFTFTSSAMQWVRQARGQRLEWIGWIVVGSGNTNYAQKFQERVTITRDMSTSTAYMELSSLRSEDTAVYYCAAPYCSSTNCYDAFDIWGQGTMVTVSS
VL: not shown
binding result (beta-2 microglobulin): no binding (tested: 50 µg/ml)
Kd [5]: 0.16 nM
IC50 (PRNT, authentic SARS-CoV-2) [3]: 0.0417 µg/mL
binding result [6]: no binding (tested: 1 µg/ml)
binding result [7]: no binding (tested: 1 µg/ml)
binding result [8]: no binding (tested: 1 µg/ml)
binding result [9]: no binding (tested: 1 µg/ml)
IC90 Neutralizing Assay [4]: > 500

B5: HL CV07-283 (antibody, V domains shown)
VH: QVQLVQSGAEVKKPGASAKVSCKASGYTFTGYYIHWVRQAPGQGLEWMGLINPISGGTNYAQKFQDRVTMTRDTSISTAYMELSRLRSDDTAVYYCVRGPFYYDSSGPLGGMDVWGQGTTVTVSS
VL: QSALTQPASVSGSPGQSITISCTGTSGDVGGYNYVSWYQQHPGKAPKLMIYEVSNRPSGVSNRFSGSKSGNTASLTISGLQAEDEADYYCSSYTSSSTYVFGTGTKVTVLG
binding result (beta-2 microglobulin): no binding (tested: 50 µg/ml)
Kd [5]: 0.0475 nM
IC50 (PRNT, authentic SARS-CoV-2) [3]: 0.0169 µg/mL
binding result [6]: no binding (tested: 1 µg/ml)
binding result [7]: no binding (tested: 1 µg/ml)
binding result [8]: no binding (tested: 1 µg/ml)
binding result [9]: no binding (tested: 1 µg/ml)
IC50 Neutralizing Assay [4]: ~0.05 µg/mL
IC90 Neutralizing Assay [4]: > 500
